Measurements published in US20030021770A1.

Molecular target: mini-MUC1 polypeptide (product of the miMUC1 gene, human DF3/MUC1 with 7 variant tandem repeats) (human) (UniProt P15941)
Assay: flow cytometry, 1 ug/ml DF3 MAb on MC38/MUC1 cells, fluorescein-labeled goat anti-mouse IgG

Sequence of UniProt P15941 (P15941 other isoform, or with tags, fused parts or gaps mutant, form in doubt): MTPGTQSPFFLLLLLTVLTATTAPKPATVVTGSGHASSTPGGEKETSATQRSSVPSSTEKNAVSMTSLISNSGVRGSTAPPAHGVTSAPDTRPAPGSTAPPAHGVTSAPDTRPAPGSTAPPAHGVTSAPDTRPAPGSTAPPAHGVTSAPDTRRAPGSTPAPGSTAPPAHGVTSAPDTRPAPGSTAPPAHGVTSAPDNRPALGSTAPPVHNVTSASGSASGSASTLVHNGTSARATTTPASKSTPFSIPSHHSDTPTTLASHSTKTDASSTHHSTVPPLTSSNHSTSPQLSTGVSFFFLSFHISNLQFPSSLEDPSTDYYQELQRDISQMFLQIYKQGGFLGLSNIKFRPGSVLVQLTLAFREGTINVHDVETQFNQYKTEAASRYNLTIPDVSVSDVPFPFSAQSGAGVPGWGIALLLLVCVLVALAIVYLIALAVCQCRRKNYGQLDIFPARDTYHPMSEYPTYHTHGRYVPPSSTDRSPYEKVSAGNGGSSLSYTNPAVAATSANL

DF3 monoclonal antibody (anti-MUC1)
mean fluorescence: 400 | percent of cells positive: 87.5%
